{"source": "patent US11840557B2", "about": "“Wnt7 variants capable of activating g-protein coupled receptor (Gpr)124/Reck/frizzled/lipoprotein receptor-related protein (LRP)-mediated Wnt signaling” (UNIVERSITÉ LIBRE DE BRUXELLES, priority 2018, dated 2023)", "molecules": {"B1": {"name": "Wnt7a^K190A: single-residue variant of full-length mWnt7a (precursor numbering); Gpr124/Reck-selective agonist (protein)", "chain": "LGASIICNKIPGLAPRQRAICQSRPDAIIVIGEGSQMGLDECQFQFRNGRWNCSALGERTVFGKELKVGSREAAFTYAIIAAGVAHAITAACTQGNLSDCGCDKEKQGQYHRDEGWKWGGCSADIRYGIGFAKVFVDAREIKQNARTLMNLHNNEAGRAILEENMKLECKCHGVSGSCTTKTCWTTLPQFRELGYVLKDKYNEAVHVEPVRASRNKRPTFLKIKKPLSYRKPMDTDLVYIEKSPNYCEEDPVTGSVGTQGRACNKTAPQASGCDLMCCGRGYNTHQYARVWQCNCKFHWCCYVKCNTCSERTEMYTCK", "modifications": "human Wnt7a variant K159A"}}, "key": {"zebrafish zygote": {"system": "zebrafish zygote", "type": "in vivo, Danio rerio", "conditions": "injection in zygote, 3 dpf larvae", "procedure": "(§1) The following splice-blocking morpholino (MOs) (GeneTools, Eugene, OR) were injected into embryos at the one-cell stage: wnt7aa ([…], 6 ng) (SEQ ID NO.: 123). Synthetic mRNAs were transcribed from pCS2 plasmids after NotI digestion using the mMessage mMachine SP6 Kit (Ambion, Carlsbad, CA) and injected into one-cell stage zebrafish embryo. For Xenopus laevis microinjection, 15 pg of wnt7a or wnt7a^K190A or wnt7a^1-278 mRNA were injected into one ventral blastomere of the four-cell stage embryo.\n(§2) zebrafish embryos were imaged with an LSM710 confocal microscope and images were processed in ImageJ. Images of zebrafish development phenotypes were taken on Leica M165 FC. Xenopus larvae were imaged with an Olympus SZX16."}, "wnt7aa morphants": {"system": "wnt7aa morphants", "assay": "Trunk DRG rescue in wnt7aa morphant zebrafish larvae", "type": "in vivo, Danio rerio", "conditions": "100 pg mRNA injection, 72 hpf", "procedure": "Zebrafish (Danio rerio) were raised and handled under standard conditions following the rules of the State of Belgium (protocol approval number: CEBEA-IBMM-2017-22:65). The following line was used: Tg(−17.0neurog1:EGFP)^w61 (McGraw et al., J. Neurosci 28(47):12558-69 (2008)).\nas §1, §2"}, "all 10 Fz genes": {"system": "all 10 Fz genes", "assay": "STF luciferase assay after co-transfection with all 10 Fz genes, no Gpr124/Reck", "type": "cell-based", "conditions": "in the absence of Gpr124/Reck", "procedure": "Cells were plated into 96-well plates and transfected after 24 h in triplicate with Lipofectamine 2000 (Invitrogen, Carlsbad, Calif.). The amount of plasmid DNA transfected per well was optimized for each expression vector: Renilla luciferase (0.5 ng), Wnt (20 ng), Fz (5 ng), LRP (2.5 ng), Gpr124 (10 ng), Reck (10 ng) unless otherwise indicated. The total amount of DNA was adjusted to 100 ng per well with the empty pCS2 vector. Cells were harvested in passive lysis buffer (E1960, Promega, Wisconsin) and the activities of the Firefly and Renilla luciferases were measured sequentially using the Dual-Luciferase Reporter Assay system (E1960, Promega, Madison, Wis.) 48 h post-transfection."}, "[1]": {"system": "Wnt7aa^−/− mutant zebrafish", "assay": "Transgenic endothelial expression (kdrl promoter) in Wnt7aa−/− zebrafish: hindbrain CtAs and GLUT1 staining", "type": "in vivo, Danio rerio", "conditions": "60 hpf embryos", "description": "(A) Dorsal views of the cerebral vasculatures of 60 hpf WT or Wnt7aa^−/− Tg(kdrl:EGFP) embryos. In Wnt7a^−/− mutants, the intracerebral CtAs are lacking. Wnt7, Wnt7a^K190A or Wnt7a^1-278 were transiently expressed in the endothelium of Wnt7aa^−/− embryos under the control of an endothelial-specific kdrl (Vascular endothelial growth factor receptor kdr-like) promoter. The Wnt7 ligands were expressed as a biscistronic construct with BFP (Blue Fluorescent Protein) used as transgenesis marker. In contrast to uninjected embryos, Wnt7, Wnt7a^K190A or Wnt7a^1-278 restore hindbrain CtAs formation in Wnt7aa^−/− mutants as quantified in (B). (C) Anti-GLUT1 staining of the CtAs after transgenic expression of Wnt7, Wnt7a^K190A and Wnt7a^1-278 in 60 hpf Wnt7aa^−/− embryos. Transgenic expression was achieved as in (A).\nMouse Wnt7, Wnt7a^K190A and Wnt7a^1-278 were transiently expressed in the endothelium of Wnt7aa^−/− embryos under the control of an endothelial-specific kdrl (Vascular endothelial growth factor receptor kdr-like) promoter. The Wnt7 ligands were expressed as a biscistronic construct with BFP (Blue Fluorescent Protein) as transgenesis marker."}}, "data": [{"molecule": "B1", "values": [{"measurement": "mRNA dose well tolerated without posteriorizing or gross anatomical alterations", "setting": "zebrafish zygote", "result": "≤ 100", "unit": "pg"}, {"measurement": "DRG rescue", "setting": "wnt7aa morphants", "result": "significant DRG rescues"}, {"measurement": "signaling through any Fz", "setting": "all 10 Fz genes", "result": "failed to signal through any Fz"}, {"measurement": "blood-brain barrier (GLUT1 expression)", "setting": "[1]; anti-GLUT1 staining of CtAs", "result": "restored blood-brain barrier"}, {"measurement": "brain angiogenesis / hindbrain CtAs formation", "setting": "[1]; transient endothelial expression", "result": "triggered GPR124/RECK-dependent brain angiogenesis"}]}]}
